In US20150098945A1 (Daiichi Sankyo, published 2015):

What was measured:
[1] = target: T1, N-terminal FLAG-tagged full-length human ROBO4 (pCI-FLAG-hROBO4-28) (human, UniProt Q8WZ75 28-1007); test: flow cytometry, HEK293 cells transfected with pCI-FLAG-hROBO4-28, antibody at 10 µg/mL, anti-mouse IgG FITC; control histogram IgG (Mouse IgG2a)
T1 construct: On transfected HEK293 cells
T1 sequence: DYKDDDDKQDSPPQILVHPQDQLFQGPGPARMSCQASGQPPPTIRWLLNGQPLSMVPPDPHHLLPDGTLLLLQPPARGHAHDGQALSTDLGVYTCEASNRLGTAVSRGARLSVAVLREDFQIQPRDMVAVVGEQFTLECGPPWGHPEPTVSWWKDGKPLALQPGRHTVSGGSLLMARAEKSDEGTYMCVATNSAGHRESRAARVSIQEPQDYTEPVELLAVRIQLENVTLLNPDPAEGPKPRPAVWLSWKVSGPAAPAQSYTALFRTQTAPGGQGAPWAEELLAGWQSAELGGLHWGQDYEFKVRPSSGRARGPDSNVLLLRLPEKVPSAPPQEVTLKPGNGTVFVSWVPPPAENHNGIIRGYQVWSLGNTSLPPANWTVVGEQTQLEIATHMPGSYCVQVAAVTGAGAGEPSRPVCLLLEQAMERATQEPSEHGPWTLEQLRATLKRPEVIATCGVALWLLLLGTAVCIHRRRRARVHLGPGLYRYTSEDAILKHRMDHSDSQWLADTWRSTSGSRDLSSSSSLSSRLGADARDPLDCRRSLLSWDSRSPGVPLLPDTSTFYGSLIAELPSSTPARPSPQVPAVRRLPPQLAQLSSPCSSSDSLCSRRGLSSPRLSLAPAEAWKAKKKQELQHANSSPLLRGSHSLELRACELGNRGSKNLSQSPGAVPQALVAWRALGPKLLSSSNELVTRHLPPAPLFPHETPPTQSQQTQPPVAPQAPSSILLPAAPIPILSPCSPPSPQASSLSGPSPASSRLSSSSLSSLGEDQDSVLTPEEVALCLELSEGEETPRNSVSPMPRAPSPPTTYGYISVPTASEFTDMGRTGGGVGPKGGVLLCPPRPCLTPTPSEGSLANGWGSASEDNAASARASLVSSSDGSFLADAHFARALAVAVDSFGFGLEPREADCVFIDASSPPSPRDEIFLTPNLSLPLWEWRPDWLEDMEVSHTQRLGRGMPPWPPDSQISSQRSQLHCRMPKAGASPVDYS
Description: HEK293 cells were inoculated at a concentration of 1.5×10⁶ cells/dish to a 60-mm dish (manufactured by Corning Inc.) and cultured overnight in a DMEM medium containing 10% FBS at 37° C. under 5% CO₂ conditions. […] On the next day, the expression vector-transfected cells were treated with TrypLE Express (manufactured by Life Technologies Corp.), washed with PBS containing 5% FBS, and then suspended in PBS containing 5% FBS. The obtained cell suspension was used in flow cytometry analysis.
Each cell suspension prepared in 4)-5-1 was centrifuged, and the supernatant was removed. Then, MAb1, a positive control Monoclonal ANTI-FLAG M2 antibody produced in mouse, or a negative control Mouse IgG2a was added at a concentration of 10 μg/mL to 2×10⁵ expression vector-transfected cells, and the resulting suspension was left standing at 4° C. for 1 hour. The cells were washed once with PBS containing 5% FBS. Then, Anti-Mouse IgG FITC conjugate diluted 1000-fold with PBS containing 5% FBS was added thereto, and the resulting suspension was left standing at 4° C. for 1 hour. […] Data was analyzed using Flowjo. The histogram of FITC fluorescence intensity was prepared. The antibody was determined to bind to a cell when the histogram of MAb1 was shifted to a stronger fluorescence intensity region compared with the histogram of the negative control Mouse IgG2a. […]

[2] = target: T2, N-terminal FLAG-tagged cynomolgus monkey ROBO4, cynoROBO4-1 (pCI-FLAG-cynoROBO4-1) (cynomolgus monkey, UniProt Q8WZ75 28-1007 (human entry)); test: flow cytometry (FC500), HEK293 cells transfected with pCI-FLAG-cynoROBO4-1, antibody at 10 µg/mL, FITC goat anti-human IgG Fc; control histogram IgG (human IgG)
T2 chain: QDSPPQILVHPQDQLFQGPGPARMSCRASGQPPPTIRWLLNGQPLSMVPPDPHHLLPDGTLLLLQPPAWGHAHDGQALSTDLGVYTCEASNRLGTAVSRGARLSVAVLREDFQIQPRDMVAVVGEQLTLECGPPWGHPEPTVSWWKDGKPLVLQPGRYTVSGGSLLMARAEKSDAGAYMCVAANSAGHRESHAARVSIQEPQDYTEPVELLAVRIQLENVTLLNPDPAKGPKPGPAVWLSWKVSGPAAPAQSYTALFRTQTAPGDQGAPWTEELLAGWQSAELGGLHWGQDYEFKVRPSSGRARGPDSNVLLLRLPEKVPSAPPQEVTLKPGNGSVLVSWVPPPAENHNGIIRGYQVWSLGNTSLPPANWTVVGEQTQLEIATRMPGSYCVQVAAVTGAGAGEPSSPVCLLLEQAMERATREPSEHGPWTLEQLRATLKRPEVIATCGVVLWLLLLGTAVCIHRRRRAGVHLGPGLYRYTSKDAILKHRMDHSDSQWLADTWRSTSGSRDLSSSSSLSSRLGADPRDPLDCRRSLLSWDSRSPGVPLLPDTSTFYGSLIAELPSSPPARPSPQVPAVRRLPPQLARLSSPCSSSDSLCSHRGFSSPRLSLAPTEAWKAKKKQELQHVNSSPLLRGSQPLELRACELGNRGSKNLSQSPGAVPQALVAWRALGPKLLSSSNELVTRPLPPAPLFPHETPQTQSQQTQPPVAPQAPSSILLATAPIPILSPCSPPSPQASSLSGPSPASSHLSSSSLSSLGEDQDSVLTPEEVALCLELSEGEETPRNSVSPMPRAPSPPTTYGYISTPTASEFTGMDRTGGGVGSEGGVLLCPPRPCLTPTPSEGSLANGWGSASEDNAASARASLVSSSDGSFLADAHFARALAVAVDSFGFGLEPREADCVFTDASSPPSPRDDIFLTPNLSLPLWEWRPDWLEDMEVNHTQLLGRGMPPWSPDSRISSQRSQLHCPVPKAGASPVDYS

Row | Binder | binding result [1] | binding result [2]
1 | anti-ROBO4 mouse monoclonal antibody MAb1 (antibody, mouse IgG1, V domains shown, Mouse IgG1 (gamma1), kappa light chain, purified from hybridoma supernatant; also called parent antibody MAb1) VH: EVQLVESGGGLVKPGGSLKLSCAASGFTFSTYAMSWVRQTPEKRLEWVATISNGGTYTYYPDSVKGRFTISRDNAENTLYLQMSSLRSEDTAMYFCARLIYYDYLDYWGHGTTLTVSS VL: DAVMTQTPLSLPVSLGDQASISCRSSQSLENSNGNTYLNWYFQKPGQSPQLLIYRVSNRFSGVLDRFSGSGSGTDFTLKISRVEAEDFGVYFCLQVTHVPWTFGGGTKLEIKR | binds | 
2 | humanized MAb1 antibody H-2143 (antibody, human IgG2, kappa, V domains shown, Human IgG2 / kappa constant regions; also called hMAb1-H4-type heavy chain + hMAb1-L2-type light chain) VH: EVQLVESGGGLVQPGGSLRLSCAASGFTFSTYAMSWVRQAPGKRLEWVATISQGGTYTYYPDSVKGRFTISRDNAKNTLYLQMNSLRAEDTAVYYCARLIYYDYLDYWGQGTLVTVSS VL: DIVMTQSPLSLPVTLGEPASISCRSSQSLENENKNLYLNWYLQKPGQSPQLLIYRVSNRFSGVPDRFSGSGSGTDFTLKISRVEAEDVGVYYCLQVTHVPWTFGPGTKVDIKR |  | binds
